Test [1] has as its target T1, human CD134 (full-length, on cells) (human, UniProt P43489 29-277).
T1 sequence: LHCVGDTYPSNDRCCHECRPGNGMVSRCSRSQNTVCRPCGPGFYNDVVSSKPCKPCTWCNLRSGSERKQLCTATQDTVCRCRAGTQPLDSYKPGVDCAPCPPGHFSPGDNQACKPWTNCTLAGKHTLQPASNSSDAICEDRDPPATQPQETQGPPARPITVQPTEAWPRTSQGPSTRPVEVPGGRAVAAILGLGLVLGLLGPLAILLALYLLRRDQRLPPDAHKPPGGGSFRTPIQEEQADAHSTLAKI
Briefly: flow cytometry, PHA-stimulated human CD3+ T lymphocytes.

Test [2] has as its target T2, truncated human CD134 'truncated (tc) CRD4' construct (human, UniProt P43489 147-277).
T2 construct: also called truncated CRD4
T2 sequence: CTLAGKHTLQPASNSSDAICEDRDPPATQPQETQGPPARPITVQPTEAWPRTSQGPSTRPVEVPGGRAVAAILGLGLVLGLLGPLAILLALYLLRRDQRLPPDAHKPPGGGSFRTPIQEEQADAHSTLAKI
Briefly: flow cytometry, transiently transfected 293-F cells (parental 12H3: binding completely absent on tcCRD4). As to the method:
After 48-72 h, surface human CD134 expression on transfected cells was analyzed by FACS analysis. To this end, transfected cells were harvested and put at 1-2×10⁶ cells/mL in ice-chilled PBS/BSA/NaN₃. […] After extensive washing in PBS/BSA/NaN₃, cells were subsequently incubated with 1:200 diluted PE-conjugated goat anti-human IgG (Fcγ specific) antibodies (Jackson ImmunoResearch) for 30 minutes at 4° C. After extensive washing in PBS/BSA/NaN₃, cells were fixed in 2% formaldehyde in PBS/BSA/NaN₃ for 30 minutes at 4° C. Binding of antibodies was measured using flow cytometry (FACSCalibur; BD Biosciences).
(Flow cytometry measures light scatter and fluorescence of single cells or particles in a stream.)

The target of test [3] is T1, human CD134 (full-length, on cells). Briefly: cell-based or functional assay.
Test [4] concerns the target T3, recombinant human CD134:human Fcγ (IgG1) fusion protein (human, UniProt P01857-1 100-330 = IgG part, limits assumed).
T3 construct: domain: Fcγ (IgG1); Bought (R&D Systems); also called rhuCD134
Briefly: ELISA, plate-bound CD134:Fc 50 ng/well. As to the method: Ninety six-wells flat-bottom ELISA plates (Corning) were coated with 50 ng/well recombinant human CD134:human Fcγ (IgG1) fusion protein (R&D Systems) in PBS o/n at 4° C. After extensive washing in PBS/0.05% Tween 20, plates were blocked in PBS/0.05% Tween 20/1% BSA fraction V (Roche) for 1 hour at RT. […] After extensive washing in PBS/0.05% Tween 20, binding of antibodies was determined with 1:5000 diluted horseradish peroxidase-conjugated goat anti-mouse (Fcγ specific) antibodies (Jackson ImmunoResearch) or with 1:4000 diluted horseradish peroxidase-conjugated goat anti-human κ-specific antibodies (Southern Biotech) for 1 hour at RT, followed by a ready-to-use solution of TMB substrate (Invitrogen) for colorimetric detection. After adding 1 M H₂SO₄, optical densities were measured at, a wavelength of 450 nm (reference wavelength of 655 nm) using a microplate reader (BioRad).
For orientation: An ELISA detects its analyte on a solid surface through an enzyme-linked reagent.

Test [5] deals with T1, human CD134 (full-length, on cells). Description: flow cytometry, stable CD134 293-F clone no. 23. As for the experimental part: (§1) Full-length human CD134 (SEQ ID NO. 1) was re-cloned in a pcDNA3.1-derived expression plasmid (see Example 11 (d) below). […] After extensive washing in PBS/BSA/NaN₃, cells were subsequently incubated with 1:200 diluted PE-conjugated goat anti-mouse IgG (Fcγ specific) antibodies (Jackson ImmunoResearch) or with 1:200 diluted PE-conjugated goat anti-human IgG (Fcγ specific) antibodies (Jackson ImmunoResearch) for 30 minutes at 4° C. After extensive washing in PBS/BSA/NaN₃, cells were fixed in 2% formaldehyde in PBS/BSA/NaN₃ for 30 minutes at 4° C. Binding of antibodies was measured using flow cytometry (FACSCalibur; BD Biosciences).

The target is the same in test [6]. Briefly: competition flow cytometry, stable CD134 293-F clone no. 5; competitor biotinylated mouse 12H3 at 700 ng/mL. As to the method: Full-length human CD134 (SEQ ID NO1) was re-cloned in a pcDNA3.1-derived expression plasmid (see Example 11 (c) above). […] After extensive washing in PBS/BSA/NaN₃, cells were fixed in 2% formaldehyde in PBS/BSA/NaN₃ for 30 minutes at 4° C.

Test [7] has the same target. Description: flow cytometry, stable CD134 293-F clone no. 5. As for the experimental part:
as §1

Residue numbers refer to the chain shown, from its start.

T3 sequence (P01857 other isoform, or with tags, fused parts or gaps limits assumed): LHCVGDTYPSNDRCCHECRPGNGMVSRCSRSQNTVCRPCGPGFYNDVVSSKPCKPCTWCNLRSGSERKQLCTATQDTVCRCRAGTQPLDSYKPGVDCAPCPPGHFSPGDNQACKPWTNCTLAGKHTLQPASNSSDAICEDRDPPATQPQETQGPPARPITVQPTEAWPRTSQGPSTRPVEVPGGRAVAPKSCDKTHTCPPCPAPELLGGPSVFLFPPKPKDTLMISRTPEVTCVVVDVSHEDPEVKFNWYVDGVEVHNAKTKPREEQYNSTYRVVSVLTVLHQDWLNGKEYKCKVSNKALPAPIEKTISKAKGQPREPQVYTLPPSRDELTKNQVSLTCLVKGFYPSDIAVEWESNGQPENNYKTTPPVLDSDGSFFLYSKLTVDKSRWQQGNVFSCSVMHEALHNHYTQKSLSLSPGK

Broadly, the EC50 is the concentration that produces a half-maximal response. In test [1], “commercially available mouse anti-human CD134 antibody clone ACT35” had an EC50 of 2.5 µg/mL and a saturating concentration of 5 µg/mL.

B1: chimeric human IgG1κ anti-human CD134 monoclonal antibody clone 12H3 (antibody, V domains shown)
VH: EVQLQQSGPELVKPGASVKISCKTSGYTFKDYTMHWVKQSHGKSLEWIGGIYPNNGGSTYNQNFKDKATLTVDKSSSTAYMEFRSLTSEDSAVYYCARMGYHGPHLDFDVWGAGTTVTVSP
VL: DIVMTQSHKFMSTSLGDRVSITCKASQDVGAAVAWYQQKPGQSPKLLIYWASTRHTGVPDRFTGGGSGTDFTLTISNVQSEDLTDYFCQQYINYPLTFGGGTKLEIKR
notes: Human IgG1/kappa constant regions
B1: the binding result in test [2] is “no binding (tested: 20.0 µg/mL)”.

B2: mouse anti-human CD134 monoclonal antibody clone 20E5 (antibody, V domains shown)
VH: EVQLQQSGPELVKPGASVKMSCKASGYTFTSYVMHWVKQKPGQGLEWIGYINPYNDGTKYNEKFKGKATLTSDKSSSTAYMELSSLTSEDSAVYYCANYYGSSLSMDYWGQGTSVTVSS
VL: DIQMTQTTSSLSASLGDRVTISCRASQDISNYLNWYQQKPDGTVKLLIYYTSRLHSGVPSRFSGSGSGTDYSLTISNLEQEDIATYFCQQGNTLPWTFGGGTKLEIKR
notes: also called m20E5; parental mouse anti-human CD134 antibody clone 20E5
In the case of B2, in test [1], the EC50 is ~2.5 µg/mL.

B3: humanized IgG4κ anti-human CD134 antibody clone 12H3 version 12H3_VL1VH2 (antibody, V domains shown)
VH: QVQLVQSGAEVKKPGSSVKVSCKASGYTFKDYTMHWVRQAPGQGLEWIGGIYPNNGGSTYNQNFKDRVTLTADKSTSTAYMELSSLRSEDTAVYYCARMGYHGPHLDFDVWGQGTTVTVSS
VL: DIQMTQSPSSLSASVGDRVTITCKASQDVGAAVAWYQQKPGKAPKLLIYWASTRHTGVPSRFSGSGSGTDFTLTISSLQPEDFATYYCQQYINYPLTFGGGTKVEIKR
notes: Stabilized human IgG4/κ; end of each range computed; also called 12H3_VL1H2; 2H3 VL1VH2 (SF2)
What is called IC50 is the concentration needed to halve the response being measured. A lower IC50 goes with higher potency. On to B3, for which, in test [3], the “Replication Index, Treg/Teff ratio 0:1, donor 1” value was 13.9; the “Replication Index, Treg/Teff ratio 0:1, donor 2” value was determined as 12.1; the “Replication Index, Treg/Teff ratio 0:1, donor 3” value turned out to be 10.2; the “Replication Index, Treg/Teff ratio 0:1, donor 4” value turned out to be 10.7. In test [3], the “Replication Index, Treg/Teff ratio 0:1, donor 5” value stood at 8.66; the “Replication Index, Treg/Teff ratio 1:2, donor 1” value was determined as 5.33; the “Replication Index, Treg/Teff ratio 1:2, donor 2” value is 5.82; the “Replication Index, Treg/Teff ratio 1:2, donor 3” value was found to be 6. In addition, in test [3], the “Replication Index, Treg/Teff ratio 1:2, donor 4” value came out at 6.05; the “Replication Index, Treg/Teff ratio 1:2, donor 5” value is 4.71; the “Replication Index, Treg/Teff ratio 1:4, donor 1” value amounted to 5.23; the “Replication Index, Treg/Teff ratio 1:4, donor 2” value worked out at 5.21. For the same molecule, in test [3], the “Replication Index, Treg/Teff ratio 1:4, donor 3” value worked out at 5.23; the “Replication Index, Treg/Teff ratio 1:4, donor 4” value amounted to 5.51; the “Replication Index, Treg/Teff ratio 1:4, donor 5” value came out at 4.81. Moreover, in test [4], the EC50 was ~0.05 µg/mL. The EC50 in test [5] is < 0.2 µg/mL. In test [6], the half-inhibitory concentration (IC50) is ~1.5 µg/mL.

B4: humanized IgG4κ anti-human CD134 antibody clone 12H3 version 12H3_VL2VH2 (antibody, V domains shown)
VH: B3 VH
VL: B3 VL with S60D, S65G
notes: Stabilized human IgG4/κ; end of each range computed; also called 12H3_VL2H2
As to B4, the EC50 in test [4] is ~0.05 µg/mL; in test [5], < 0.2 µg/mL. For the same molecule, the IC50 in test [6] is ~1.5 µg/mL.

B5: humanized IgG4κ anti-human CD134 antibody clone 12H3 version 12H3_VL1VH3 (antibody, V domains shown)
VH: B3 VH with V68A, A72V
VL: B3 VL
notes: Stabilized human IgG4/κ; end of each range computed; also called 12H3_VL1H3
Turning to B5, the EC50 in test [4] was ~0.05 µg/mL; in test [5], < 0.2 µg/mL. For the same molecule, the IC50 in test [6] was ~1.5 µg/mL.

B6: humanized IgG4κ anti-human CD134 antibody clone 12H3 version 12H3_VL2VH1 (antibody, V domains shown)
VH: B3 VH with I48M, L70I
VL: B3 VL with S60D, S65G
notes: Stabilized human IgG4/κ; end of each range computed; also called 12H3_VL2H1
Turning to B6, the concentration for a half-maximal effect (EC50) in test [4] is ~0.05 µg/mL; in test [5], < 0.2 µg/mL. For the same molecule, in test [6], the IC50 is ~1.5 µg/mL.

B7: humanized IgG4κ anti-human CD134 antibody clone 12H3 version 12H3_VL1VH1 (antibody, V domains shown)
VH: B3 VH with I48M, L70I
VL: B3 VL
notes: Stabilized human IgG4 (Angal et al.)/κ; also called 12H3_VL1H1
As for B7, the EC50 is ~0.05 µg/mL in test [4] and < 0.2 µg/mL in test [5]. In addition, in test [6], the IC50 is ~1.5 µg/mL.

B8: humanized IgG4κ anti-human CD134 antibody clone 12H3 version 12H3_VL2VH3 (antibody, V domains shown)
VH: B3 VH with V68A, A72V
VL: B3 VL with S60D, S65G
notes: Stabilized human IgG4/κ; end of each range computed
Turning to B8, the EC50 was ~0.05 µg/mL in test [4] and < 0.2 µg/mL in test [5]. Also, the IC50 in test [6] is ~1.5 µg/mL.

B9: humanized IgG4κ anti-human CD134 antibody clone 20E5 version 20E5_VL1VH2 (antibody, V domains shown)
VH: QVQLVQSGAEVKKPGASVKVSCKASGYTFTSYVMHWVRQAPGQRLEWIGYINPYNDGTKYNEKFKGRATITSDTSASTAYMELSSLRSEDTAVYYCANYYGSSLSMDYWGQGTLVTVSS
VL: DIQMTQSPSSLSASVGDRVTITCRASQDISNYLNWYQQKPGKAPKLLIYYTSRLHSGVPSRFSGSGSGTDYTLTISSLQPEDFATYYCQQGNTLPWTFGQGTKVEIKR
notes: Stabilized human IgG4/κ; end of each range computed; also called 20E5_VL1H2; VL1H2
Turning to B9, in test [4], the EC50 was ~0.15 µg/mL. In addition, the binding result in test [7] was “binds”.

B10: humanized IgG4κ anti-human CD134 antibody clone 20E5 version 20E5_VL2VH3 (antibody, V domains shown)
VH: B9 VH with I70L, T74K
VL: B9 VL with P44V, Y87F
notes: as for B8
With B10, the EC50 in test [4] is ~0.1 µg/mL. Further, the binding result in test [7] is recorded as “binds”.

B11: humanized IgG4κ anti-human CD134 antibody clone 20E5 version 20E5_VL2VH1 (antibody, V domains shown)
VH: B9 VH with I48M, A68V
VL: B9 VL with P44V, Y87F
notes: Stabilized human IgG4/κ; end of each range computed; also called 20E5_VL2H1
On to B11, for which, in test [4], the 50% effective concentration (EC50) is ~0.1 µg/mL. Also, the binding result in test [7] is listed as “binds”.

B12: humanized IgG4κ anti-human CD134 antibody clone 20E5 version 20E5_VL1VH3 (antibody, V domains shown)
VH: B9 VH with I70L, T74K
VL: B9 VL
notes: Stabilized human IgG4/κ; end of each range computed; also called 20E5_VL1H3; 2-E5_VL1VH3
For B12, the EC50 in test [4] was ~0.1 µg/mL. For the same molecule, the binding result in test [7] was “binds”.

B13: humanized IgG4κ anti-human CD134 antibody clone 20E5 version 20E5_VL2VH2 (antibody, V domains shown)
VH: B9 VH
VL: B9 VL with P44V, Y87F
notes: as for B8
As to B13, the concentration giving a half-maximal response (EC50) in test [4] is ~0.1 µg/mL. The binding result in test [7] was “binds”.

These data come from patent publication US20140377284A1 (BIOCEROX PRODUCTS B V, published 2014).
